Data from patent CN116510007A.

Target: 人IL-11Rα (全长基因, stably expressed on STAT3-luc HEK293 cells) (human) (UniProt Q14626)
Test: cell-based or functional assay

UniProt Q14626, sequence (Q14626 23-422): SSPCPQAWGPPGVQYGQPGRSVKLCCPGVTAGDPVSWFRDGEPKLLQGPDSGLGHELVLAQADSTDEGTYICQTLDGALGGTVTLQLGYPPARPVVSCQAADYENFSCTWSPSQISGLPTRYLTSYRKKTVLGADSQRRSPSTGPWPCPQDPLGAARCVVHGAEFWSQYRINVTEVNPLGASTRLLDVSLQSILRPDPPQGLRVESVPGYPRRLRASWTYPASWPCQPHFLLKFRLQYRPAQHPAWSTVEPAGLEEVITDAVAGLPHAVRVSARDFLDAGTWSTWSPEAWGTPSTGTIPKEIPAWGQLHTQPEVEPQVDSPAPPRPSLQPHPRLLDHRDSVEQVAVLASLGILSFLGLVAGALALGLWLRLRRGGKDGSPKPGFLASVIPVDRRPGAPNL

IL-11 (ligand)
IL-11刺激STAT3报告基因转录表达的EC50: 0.11 ng/mL
